Numbering of substitutions follows the chain as printed.
Columns and labels:
Test in all cases: SPR
Conditions in all cases: both partners purified
[1] = target: T1, SARS-CoV-2 Omicron BA.1 S NTD, human Fc-tagged (SARS-CoV-2 Omicron BA.1, strain)
T1 construct: also called BA.1 NTD

[2] = target: T2, SARS-CoV-2 Omicron BA.2 S NTD, human Fc-tagged (SARS-CoV-2 Omicron BA.2, strain)
T2 construct: also called BA.2 NTD
T2 chain: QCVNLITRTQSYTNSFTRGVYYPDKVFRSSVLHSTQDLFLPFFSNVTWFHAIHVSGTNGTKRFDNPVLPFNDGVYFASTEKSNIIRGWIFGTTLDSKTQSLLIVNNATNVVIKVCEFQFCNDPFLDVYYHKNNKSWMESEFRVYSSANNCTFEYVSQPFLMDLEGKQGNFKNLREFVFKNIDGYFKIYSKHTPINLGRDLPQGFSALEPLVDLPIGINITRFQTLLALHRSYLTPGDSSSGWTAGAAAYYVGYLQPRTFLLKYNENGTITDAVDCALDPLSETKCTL

[3] = target: T3, SARS-CoV-2 Omicron BA.2.75 S NTD, human Fc-tagged (SARS-CoV-2 Omicron BA.2.75, strain)
T3 construct: also called BA.2.75 NTD
T3 chain: T2 chain with K131E, W136R, F141L, I194V, G241S

[4] = target: T4, SARS-CoV-2 Omicron BA.2.3.20 S NTD, human Fc-tagged (SARS-CoV-2 Omicron BA.2.3.20, strain)
T4 construct: also called BA.2.3.20 NTD
T4 chain: T2 chain

[5] = target: T5, SARS-CoV-2 Omicron BA.3 S NTD, human Fc-tagged (SARS-CoV-2 Omicron BA.3, strain)
T5 construct: also called BA.3 NTD

[6] = target: T6, SARS-CoV-2 Omicron BA.5 S NTD, human Fc-tagged (SARS-CoV-2 Omicron BA.5, strain)
T6 construct: also called BA.5 NTD
T6 chain: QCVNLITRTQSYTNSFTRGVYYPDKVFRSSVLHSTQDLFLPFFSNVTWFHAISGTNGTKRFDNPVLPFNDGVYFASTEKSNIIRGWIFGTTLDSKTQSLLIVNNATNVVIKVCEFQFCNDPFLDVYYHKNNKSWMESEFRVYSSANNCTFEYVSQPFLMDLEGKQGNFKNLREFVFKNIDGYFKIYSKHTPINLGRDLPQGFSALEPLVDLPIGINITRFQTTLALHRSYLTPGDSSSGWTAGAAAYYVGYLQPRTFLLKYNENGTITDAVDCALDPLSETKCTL

[7] = target: T7, SARS-CoV-2 Omicron XBB S NTD, human Fc-tagged (SARS-CoV-2 Omicron XBB, strain)
T7 construct: also called XBB NTD
T7 chain: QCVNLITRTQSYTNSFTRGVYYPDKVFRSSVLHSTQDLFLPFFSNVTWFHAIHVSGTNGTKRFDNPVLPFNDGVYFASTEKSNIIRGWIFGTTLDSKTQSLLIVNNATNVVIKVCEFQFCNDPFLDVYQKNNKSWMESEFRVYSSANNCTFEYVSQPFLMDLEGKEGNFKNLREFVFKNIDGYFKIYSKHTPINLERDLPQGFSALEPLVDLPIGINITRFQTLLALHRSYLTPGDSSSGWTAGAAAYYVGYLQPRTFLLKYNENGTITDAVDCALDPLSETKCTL

[8] = target: T8, SARS-CoV-2 Omicron XBB.1.5 S NTD, human Fc-tagged (SARS-CoV-2 Omicron XBB.1.5, strain)
T8 construct: also called XBB.1.5 NTD
T8 chain: T7 chain with V67A

[9] = target: T9, SARS-CoV-2 Omicron XBB.1.16 S NTD, human Fc-tagged (SARS-CoV-2 Omicron XBB.1.16, strain)
T9 construct: also called XBB.1.16 NTD
T9 chain: T7 chain with V67A, E163V, G235V

[10] = target: T10, SARS-CoV-2 Omicron EG.5.1 S NTD, human Fc-tagged (SARS-CoV-2 Omicron EG.5.1, strain)
T10 construct: also called EG.5.1 NTD
T10 chain: T7 chain with Q36H, V67A, G235V

[11] = target: T11, SARS-CoV-2 Omicron BA.2.86 S NTD, human Fc-tagged (SARS-CoV-2 Omicron BA.2.86, strain)
T11 construct: also called BA.2.86 NTD
T11 chain: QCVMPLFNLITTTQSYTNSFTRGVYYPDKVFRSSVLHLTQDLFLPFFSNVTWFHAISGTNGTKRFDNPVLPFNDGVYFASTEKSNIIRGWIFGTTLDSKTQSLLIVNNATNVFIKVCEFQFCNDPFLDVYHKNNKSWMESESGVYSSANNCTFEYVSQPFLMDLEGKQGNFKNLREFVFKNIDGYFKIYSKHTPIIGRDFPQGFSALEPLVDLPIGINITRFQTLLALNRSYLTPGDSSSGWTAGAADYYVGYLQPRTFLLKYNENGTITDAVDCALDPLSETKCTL

[12] = target: T12, SARS-CoV-2 Omicron JN.1 S NTD, human Fc-tagged (SARS-CoV-2 Omicron JN.1, strain)
T12 construct: also called JN.1 NTD
T12 chain: T11 chain

[13] = target: T13, SARS-CoV-2 Delta S NTD, human Fc-tagged (SARS-CoV-2 Delta (B.1.617.2), strain)
T13 construct: also called Delta NTD

[14] = target: T14, SARS-CoV-2 Lambda S NTD, human Fc-tagged (SARS-CoV-2 Lambda (C.37), strain)
T14 construct: also called Lambda NTD
T14 chain: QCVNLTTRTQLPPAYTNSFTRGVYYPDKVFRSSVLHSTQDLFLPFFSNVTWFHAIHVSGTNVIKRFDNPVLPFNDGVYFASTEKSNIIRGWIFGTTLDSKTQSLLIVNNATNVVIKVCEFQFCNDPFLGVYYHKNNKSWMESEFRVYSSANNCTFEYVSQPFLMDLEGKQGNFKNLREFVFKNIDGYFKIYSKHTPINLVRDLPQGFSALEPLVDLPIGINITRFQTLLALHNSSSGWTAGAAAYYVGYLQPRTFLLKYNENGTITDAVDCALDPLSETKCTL

Measured: Kd

B1: nanobody N235, His-tagged (VHH)
VHH: QVQLQESGGGLVQPGGSLRLSCAASGLIISRYDMSWYRQAPGKERELVATTPIPAARPQYADSVKGRFTISRDNAKNTVSLQMNSLKPEDTAVYYCNLGPESQDHNYNYWGQGTQVTVSS
< 0.2 nM: all assays above
